From patent US20230357354A1, “CD38-BINDING CD31 PEPTIDES AND USES THEREOF” (ENCEFA, priority 2020, published 2023)

Experiments:
[1] = molecular target: human CD38 on cells (Daudi cells; CD38^+ Jurkat T cells) (human), P28907; test: cell-based or functional assay
[2] = molecular target: recombinant human CD38 (Acrobio, ref CD8-H5224) (human), P28907; test: SPR, Biacore 3000, CM5 chip, recombinant human CD38

## CMVKLKREKNPGDQNFVILEFC (modifications not checked) [β-sheet-like folded peptide … (SEQ ID NO: 10), free peptide]
[1]
  EC50, glucose uptake (2-NBDG fluorescence), human Daudi cells: 0.002 nM
[2]
  Kd: 8.8 nM
